Experimental data reported in patent US20250277030A1 (Zymeworks, published 2025).
Each block holds one binder with its values, some of them ahead of it.

Key:
[1] = target: T1, human sodium-dependent phosphate transporter 2B (NaPi2b) (human, UniProt O95436 1-690); test: flow cytometry, IGROV-1 cells (endogenous NaPi2b), 24 h at 4 °C
T1 construct: UniProt ID is given as 095436 [sic]; also called hNaPi2b; Hu NaPi2b
T1 sequence: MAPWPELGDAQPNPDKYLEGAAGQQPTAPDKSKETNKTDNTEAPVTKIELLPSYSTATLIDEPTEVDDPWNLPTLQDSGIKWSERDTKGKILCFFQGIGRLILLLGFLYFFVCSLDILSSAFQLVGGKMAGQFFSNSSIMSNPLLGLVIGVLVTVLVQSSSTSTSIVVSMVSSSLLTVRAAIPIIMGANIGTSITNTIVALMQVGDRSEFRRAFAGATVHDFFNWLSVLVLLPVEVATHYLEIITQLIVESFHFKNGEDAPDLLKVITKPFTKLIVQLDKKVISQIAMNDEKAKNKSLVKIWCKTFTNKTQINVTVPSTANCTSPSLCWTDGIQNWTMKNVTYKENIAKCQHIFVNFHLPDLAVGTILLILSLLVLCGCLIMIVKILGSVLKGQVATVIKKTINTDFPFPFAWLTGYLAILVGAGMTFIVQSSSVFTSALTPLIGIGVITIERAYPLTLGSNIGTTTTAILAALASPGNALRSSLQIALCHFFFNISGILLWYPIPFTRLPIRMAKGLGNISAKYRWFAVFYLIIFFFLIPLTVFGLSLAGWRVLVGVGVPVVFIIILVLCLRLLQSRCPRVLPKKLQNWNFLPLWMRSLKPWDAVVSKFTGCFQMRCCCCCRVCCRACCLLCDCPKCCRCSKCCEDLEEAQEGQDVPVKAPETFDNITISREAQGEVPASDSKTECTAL
Protocol: (§1) IGROV-1 cells express endogenous NaPi2b at a high level.
(§2) Briefly, cells were seeded at 50,000 cells/well in conical-bottom 96-well plates and treated with test antibody for 24 hours at 4° C. to prevent internalization. […] Following incubation, cells were washed and stained with anti-Human IgG Fc AF647 conjugate (Jackson Immuno Research Labs, West Grove, PA; Cat. No. 109-605-098) at 4° C. for 30 min. Following incubation and washing, fluorescence was detected by flow cytometry on a BD LSRFortessa™ Cell Analyzer (BD Biosciences, Franklin Lake, NJ) with 1,000 minimum events collected per well. The AF647/APC-A GeoMean (fluorescence signal geometric mean, proportional to anti-Human AF647 binding) was calculated for the live cell population using FlowJo™ Version 10.8.1 (BD Biosciences, Franklin Lake, NJ) and plotted for each test antibody using GraphPad Prism Version 9 (GraphPad Software, San Diego, CA).

[2] = target: T1, human sodium-dependent phosphate …; test: flow cytometry, IGROV-1 cells (endogenous NaPi2b), 24 h at 4 °C; apparent Kd
Protocol: as §1, §2

[3] = target: T1, human sodium-dependent phosphate …; test: flow cytometry on IGROV-1 cells (endogenous NaPi2b), 24 h at 4 C, anti-human IgG Fc AF647 detection
Protocol: as §1, §2

[4] = target: T1, human sodium-dependent phosphate …; test: KinExA, IGROV-1 cells (endogenous NaPi2b) as titrant, monovalent antibody constant at 50 and 500 pM, N-curve analysis
Protocol: The cell-binding assay was set up using the antibody constructs or variants as constant binding partner at two different concentrations of 50 pM and 500 pM. For the titration curve with antibody variants fixed at 50 pM, at least 10 million IGROV-1 cells were used as titrant. For the titration curve with antibody variants fixed at 500 pM, at least 5 million cells were used as titrant. The antibody variants and cells were mixed in PBS pH 7.4, 1 mg/mL BSA, 0.2% NaN₃ and incubated at 4° C. for 7 days with gentle rotation until equilibrium was reached. After incubation, the mixture of antibody variants and cells was centrifuged to separate the cells from the unbound free antibody variants. The free antibody variants were loaded onto the KinExA 3200 (Sapidyne, Boise, Idaho) with biotinylated—anti-human IgG PMMA as solid phase and 0.5 μg/mL of Alexa 647 goat anti-human IgG (Jackson ImmunoResearch, West Grove, PA) as detection antibody.
N-curve analysis was used to calculate the affinity and receptor expression level with the concentrations of antibody variant as reference point.

[5] = target: T1, human sodium-dependent phosphate …; test: flow cytometry, TOV-21G cells (endogenous NaPi2b); apparent Kd
Protocol: as §2
(§3) The ability of the humanized antibody variants v38591 and v29456 to bind to NaPi2b expressed on cells was assessed on endogenous NaPi2b-expressing tumor cell lines IGROV-1 (ovarian adenocarcinoma) and TOV-21G (ovarian carcinoma) by flow cytometry.
(§4) Cellular binding was performed according to methods described in Example 13.

[6] = target: T2, cynomolgus monkey NaPi2b (cynomolgus monkey, UniProt O95436 1-690 (human entry)); test: flow cytometry, HEK293-6e cells transfected with cynomolgus NaPi2b; apparent Kd
T2 construct: Transiently expressed on HEK293-6e cells; also called Cyno NaPi2b
T2 chain: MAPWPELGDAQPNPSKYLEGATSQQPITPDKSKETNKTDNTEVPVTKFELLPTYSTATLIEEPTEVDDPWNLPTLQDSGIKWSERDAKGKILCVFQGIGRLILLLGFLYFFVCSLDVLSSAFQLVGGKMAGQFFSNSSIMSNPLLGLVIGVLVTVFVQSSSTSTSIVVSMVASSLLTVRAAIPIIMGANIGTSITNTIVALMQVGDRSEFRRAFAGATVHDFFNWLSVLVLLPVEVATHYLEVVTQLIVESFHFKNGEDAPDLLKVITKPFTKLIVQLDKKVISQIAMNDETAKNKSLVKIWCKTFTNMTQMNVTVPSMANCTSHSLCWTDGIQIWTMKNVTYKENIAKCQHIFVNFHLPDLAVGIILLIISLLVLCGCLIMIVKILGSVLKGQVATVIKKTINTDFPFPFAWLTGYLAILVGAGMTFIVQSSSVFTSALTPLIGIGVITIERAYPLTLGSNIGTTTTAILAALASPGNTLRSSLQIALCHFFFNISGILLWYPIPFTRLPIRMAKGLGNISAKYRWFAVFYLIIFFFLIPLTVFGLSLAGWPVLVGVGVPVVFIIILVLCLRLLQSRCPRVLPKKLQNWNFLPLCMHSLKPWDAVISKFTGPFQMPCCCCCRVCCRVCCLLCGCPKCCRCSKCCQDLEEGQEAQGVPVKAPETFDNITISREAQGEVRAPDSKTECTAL
Protocol: (§5) The binding cross-reactivity of humanized antibody variant v29456 to human, cynomolgus and mouse NaPi2b was assessed by flow cytometry using HEK293-6e transfected cells.
(§6) Briefly, HEK293-6e cells were transfected for ˜24 hours to transiently express human NaPi2b, cynomolgus or mouse NaPi2b, at 1 μg of DNA per 1 million cells. Following transfection, 50,000 cells per well were seeded in V-bottom 96-well plates and incubated with 200 nM of primary antibody for 18-24 hours at 4° C. to prevent internalization. Post-incubation, cells were washed and stained with anti-Human IgG Fc AF647 conjugate (Jackson Immuno Research Labs, West Grove, PA, Cat. No. 109-605-098, Lot. No. 124868) at 4° C. for 1 hour. Following staining and washing, fluorescence was detected by flow cytometry on BD LSRFortessa™ Cell Analyzer (BD Biosciences, Franklin Lake, NJ) with 10,000 minimum events collected per well. The AF647/APC-A GeoMean (fluorescence signal geometric mean, proportional to anti-Human AF647 binding) was calculated for the live singlet cell population for each primary antibody using FlowJo™ v8 software (BD Biosciences, Franklin Lake, NJ). The Bmax and Kd of each primary antibody were calculated using GraphPad Prism Version 9 (GraphPad Software, San Diego, CA)

[7] = target: T1, human sodium-dependent phosphate …; test: flow cytometry on IGROV-1 cells (endogenous NaPi2b), 24 h at 4 C, anti-human IgG Fc AF647 detection; remark: listed apart in the source
Protocol: as §2, §3, §4

[8] = target: T1, human sodium-dependent phosphate …; test: flow cytometry on TOV-21G cells (endogenous NaPi2b), 24 h at 4 C, anti-human IgG Fc AF647 detection
Protocol: as §2, §3, §4

[9] = target: T1, human sodium-dependent phosphate …; test: flow cytometry, HEK293-6e cells transfected with human NaPi2b; apparent Kd
Protocol: The binding cross-reactivity of humanized antibody variant v38591 to human NaPi2b, NaPi2a, and NaPi2c was assessed by flow cytometry using HEK293-6e transfected cells.
Following transfection, cells were seeded at 50,000 cells/well in conical-bottom 96-well plates and treated with test antibody for 24 hours at 4° C. to prevent internalization. Following incubation, cells were washed and stained with anti-Human IgG Fc AF647 conjugate (Jackson Immuno Research Labs, West Grove, PA; Cat. No. 109-605-098) or anti-Rabbit IgG F(ab″)2 AF647 conjugate (Jackson Immuno Research Labs, West Grove, PA; Cat. No. 111-605-047). Following incubation and washing, fluorescence was detected by flow cytometry on a BD LSRFortessa™ Cell Analyzer (BD Biosciences, Franklin Lake, NJ) with 1,000 minimum events collected per well. The AF647/APC-A GeoMean (fluorescence signal geometric mean, proportional to anti-Human AF647 binding) was calculated for the live cell population using FlowJo™ Version 10.8.1 (BD Biosciences, Franklin Lake, NJ) and plotted for each test antibody using GraphPad Prism Version 9 (GraphPad Software, San Diego, CA).

[10] = target: T2, cynomolgus monkey NaPi2b; test: flow cytometry, HEK293-6e cells transfected with cynomolgus NaPi2b
Protocol: as §5, §6

[11] = target: T1, human sodium-dependent phosphate …; test: flow cytometry, IGROV-1 cells (endogenous NaPi2b); apparent Kd
Protocol: as §2, §3, §4

[12] = target: T1, human sodium-dependent phosphate …; test: flow cytometry, HEK293-6e cells transfected with human NaPi2b; apparent Kd; remark: listed apart in the source
Protocol: as §5, §6

[13] = target: T1, human sodium-dependent phosphate …; test: flow cytometry, HEK293-6e cells transfected with human NaPi2b
Protocol: as §5, §6

Bmax (MFI) [1]: 43700 MFI
Kd [2]: 0.84 nM
EC50 (read off the curve) [3]: ~0.8 nM
B1: v23855, parental mouse-human chimeric anti-NaPi2b IgG1/kappa antibody (antibody, V domains shown)
VH: QAYLQQSGAELVRPGASVKMSCKASGFTFTSYNVHWVKQTPRQGLEWIAAISPGNGDLSYNQRFKDKATLTVDRSSSTAYMQLSGLTSEDSAVYFCARGRTGMGAVDYWGQGTSVTVSS
VL: DVQMTQTASSLSASLGDRVTISCRASQDVYSYLNWYQQKPHGTVKLLIYYTSRLQSGVPSRFTGSGSGTDYSLTISNLEPEDIATYYCQQYNIFPWTFGGGTKLEIKR
notes: Full-size antibody: mouse VH/VL appended to human IGHG1*01 CH1-hinge-CH2-CH3 (ends at G446) and IGKC*01; also called parental chimeric

Kd [4]: 0.15 nM
B2: v29814, monovalent format of parental chimeric variant 23855 (antibody, V domains shown)
VH: B1 VH
VL: DVQMTQTASSLSASLGDRVTISCRASQDVYSYLNWYQQKPHGTVKLLIYYTSRLQSGVPSRFTGSGSGTDYSLTISNLEPEDIATYYCQQYNIFPWTFGGGTKLEIK
notes: Only said to be the monovalent format of v23855; it is captured and detected with anti-human IgG; also called v29814 (parental chimeric)

Kd [5]: 0.67 nM
Kd [6]: 6.27 nM
EC50 (read off the curve) [7]: ~0.8 nM
EC50 (read off the curve) [8]: ~0.7 nM
Kd [9]: 5.76 nM
Bmax (APC-A GeoMean) [10]: 1560 APC-A GeoMean
Kd [11]: 0.81 nM
Kd [12]: 1.22 nM
Bmax (APC-A GeoMean) [13]: 1610 APC-A GeoMean
B3: v18993, reference anti-NaPi2b antibody lifastuzumab (antibody, human IgG1, kappa)
heavy 1: GEVQLVESGGGLVQPGGSLRLSCAASGFSFSDFAMSWVRQAPGKGLEWVATIGRVAFHTYYPDSMKGRFTISRDNSKNTLYLQMNSLRAEDTAVYYCARHRGFDVGHFDFWGQGTLVTVSSASTKGPSVFPLAPSSKSTSGGTAALGCLVKDYFPEPVTVSWNSGALTSGVHTFPAVLQSSGLYSLSSVVTVPSSSLGTQTYICNVNHKPSNTKVDKKVEPKSCDKTHTCPPCPAPELLGGPSVFLFPPKPKDTLMISRTPEVTCVVVDVSHEDPEVKFNWYVDGVEVHNAKTKPREEQYNSTYRVVSVLTVLHQDWLNGKEYKCKVSNKALPAPIEKTISKAKGQPREPQVYVYPPSRDELTKNQVSLTCLVKGFYPSDIAVEWESNGQPENNYKTTPPVLDSDGSFALVSKLTVDKSRWQQGNVFSCSVMHEALHNHYTQKSLSLSPG
heavy 2: not shown
light: GDIQMTQSPSSLSASVGDRVTITCRSSETLVHSSGNTYLEWYQQKPGKAPKLLIYRVSNRFSGVPSRFSGSGSGTDFTLTISSLQPEDFATYYCFQGSFNPLTFGQGTKVEIKRTVAAPSVFIFPPSDEQLKSGTASVVCLLNNFYPREAKVQWKVDNALQSGNSQESVTEQDSKDSTYSLSSTLTLSKADYEKHKVYACEVTHQGLSSPVTKSFNRGEC
notes: Two different heavy chain clones (CL_#11677, CL_#11678)
